Experimental data as given in the RNAGym collection of RNA variant scans (doi:10.1073/pnas.2313332121).
Variants at the floor of the assay were thinned out.

B1: TPR 5TU (parent)
chain: GGAUCUUCUCGAUCUAACAAAAAAGACAAAUCUGCCACAAAGCUUGAGAGCAUCUUCGGAUGCAGAGGCGGCAGCCUUCGGUGGCGCGAUAGCGCCAACGUUCUCAACUAUGACACGCAAAACGCGUGCUCCGUUGAAUGGAGUUUAUCAUG

Variants of: B1
Test: polymerase ribozyme fitness, log enrichment relative to wild type (log ratio); higher = more active; in vitro selection for triplet polymerase activity
How it was run: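 Frozen incubation at −7 °C formed the core of a single, triplicate in vitro selection round applied to PCR-built, transcribed mutant libraries of each subunit of a heterodimeric triplet polymerase ribozyme. Extended constructs were gel-excised, captured with streptavidin beads and amplified by RT-PCR, and input and output libraries were Illumina-sequenced with a filter of ≥10 input reads and ≥1 read per output. Fitness is the logarithm of genotype enrichment relative to wild-type enrichment, with inverse-variance-weighted replicate averaging, and the logarithm is base 2.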

Polymerase ribozyme fitness (log ratio), -4.11:
GGAUCUUCUCGAUCUAACAAAAAAGACAAAUCUGCCACAAAACUUGAGAGCAUCUUCGAAUGCAGAGGCGGCAGCCUUCGGUGGCGCGAUAGCGCCAACGUUCUCAACUAUGACACGCAAAACGCGUGCUCCGUUGAAUGGAGUUUAUCAUG [G42A G59A]

Polymerase ribozyme fitness (log ratio), ≤ -4.2:
GGAUCUUCUCGAUCUAACAAAAAAGACAAAUCUGCCACAAAACUUGAGAGCAUCUUCGAAUGCAGCGGCGGCUGCCUACGGUGGCGGGAUAGCGCCAACGUUCUCAACUAUGACACGCAAAACGCGUGCUCCGUUGAAUGGAGUUGAUAAUG [G42A G59A A66C A73U U78A C87G U146G C149A]
GGAUCUUCUCGAUCUAACAAAAAAGACAAAUCUGCCACAAAACUUGAGAGCAUCUUCUGAUGCGGAGUCGGCAGCCUUCGGUGGCGCGAUACCGUCAACGUUCUCAACUAUGACACGCAAAACGCGUGUUCCGCUGAAUGGAGUUUAUCAUG [G42A G58U A64G G68U G92C C95U C129U U134C]
GGAUCUUCUCGAUCUAACAAAAAAGACAAAUCUGCCACAAAACUUGAGAGCAUCUACGGAUGCAGAGGCGGCAGCCUUCGGUGGCGCGAUAGUGCCAACGUUCUCAACUAUGACACGCAAAACGCGUGCUCCGUUGAAUGGAGUUUAUCAUG [G42A U56A C93U]
GGAUCUUCUCGAUCUAACAAAAAAGACAAAUCUGCCACAAAACUUGAGAGCAUCUUCGGAUCCAGAGGCGGCAGCCUUCGGUGGCGCGAUAGCGCCAACGUUCUCAACUAUGACAGGCAAAACGUGUGCUCCGUUGAAUGGUGUUUAUCCUG [G42A G62C C116G C125U A142U A150C]
GGAUCUUCUCGAUCUAACAAAAAAGACAAAUCUGCCACAAAACUUGAGAGCAACUUCGGAUGCAGAGGCGGCAGCCUUCGGUGGCGCGAUAGCGCCAACGUUCUCAACUAUGACACGCAAAACGCGUGCUCCGUUGAAUGGAGUUUAUCAUG [G42A U53A]
GGAUCUUCUCGAUCUAACAAAAAAGACAAAUCUGCCACAAAACUUGAGAGCAUCUUCAGAUGCAGAGGCGGCAGCCUUCGGUGGCGCGAUAGCGCCAACCUUCUCAACUAUGACACGCAAAACGCGUGCUCCGUUGAAUGGAGUUUAUCAUG [G42A G58A G100C]
GGAUCUUCUCGAUCUAACAAAAAAGACAAAUCUGCCACAAAACUUGAGAGCAUCUUCCCAUGCAGAGGCGGCAGCCUUCGGUGGCGCCAUGGCGCCAACGUUCUCCGCUAUGACACGCAAAACGCGUGCUCCGUUGAAUGGAGUUUAUCAUG [G42A G58C G59C G88C A91G A106C A107G]
GGAUCUUCUCGAUCUAACAAAAAAGACAAAUCUGCCACAAAACUUGAGAGCAUCUUCGGAUGCAGAGGCGGCAGCCUUCGGUGGCACGAUAGCGCCAACGUUCUCAACUAUGACACGAAAAACGCGUGCUCCGUUGAAUGGAGUUUAUCAUG [G42A G86A C118A]
GGAUCUUCUCGAUCUAACAAAAAAGACAAAUCUGCCACAAAACUUGAGAGCAUCUUCGGAUGCAGAGGCGGCAGCCUGCGGUGGCGCGAUAGCGCCAACGUUCUCAACUAUGACAAGCAAAACGGGUGCUCCGUUGAAUGGAGUUUAUCAUG [G42A U78G C116A C125G]
GGAUCUUCUCGAUCUAACAAAAAAGACAAAUCUGCCACAAACCUUGAGGGCAUGUUCGGAUGCAGAGGCGGCAGCCUUCGGUCGUGCGAUAGCGCAAACGUUCUCAACUAUGACACGCAAAACGCGUGCUCCGUUGAAUGGAGUUUAUCAUG [G42C A49G C54G G83C C85U C96A]
GGAUCUUCUCGAUCUAACAAAAAAGACAAAUCUGCCACAAAACUUGAGAGCAUCUUCGAAUGCAGAGGCGGCAGCCUUCGGUGGCGCGAUAACGCCAACAUUCUCAACUAUGACACGCAAAACGAGUGCUCCGUUGAAUGGAGUUCAUCAUG [G42A G59A G92A G100A C125A U146C]
GGAUCUUCUCGAUCUAACAAAAAAGACAAAUCUGCCACAAACCUUGCGAGCAACUUCGGAUGCAGAGGCGGCAGCCUUCGGCGACGCGAUAGCGCCAACGUUCUCAACUAUGACACGCAAAGCGCGUGCUCCGUUGAUUGGACUUUAUCAUG [G42C A47C U53A U82C G84A A122G A138U G143C]
GGAUCUUCUCGAUCUAACAAAAAAGACAAAUCUGCCACAAAACUUGAGAGCAUCUUCGGAUGCAGAGCCGGCAGCCUUCGGUGGCGCGAUAGCUCCAACGUUCUCAACUAUGACACGCAAAACGCGUGCUCCGUUGAAUGGAGUUUAUCAUG [G42A G68C G94U]
GGAUCUUCUCGAUCUAACAAAAAAGACAAAUCUGCCACAAAACUUGAGAGCAUCUUCGAAUGCAGAGGCGGCAGCCUUCGGUGGCGCGAUAGCGCCAACGUGCUCAACUAUGACACGCAAAACGCGUGCUCCGUUGAAUGGAGUUUAUCAUG [G42A G59A U102G]
GGAUCUUCUCGAUCUAACAAAAAAGACAAAUCUGCCACAAAACUUGAGAGCAUCUUCGGAUGCAGAGGCGGCACCCUUCGGUCGCGCGAUAGCGCCAACGUUCUCAUCUAUCACACGCAAAACGCGUGCUCCGUUGAAUGGAGUUUAUCAUG [G42A G74C G83C A107U G112C]
GGAUCUUCUCGAUCUAACAAAAAAGACAAAUCUGCCACAAACCUUGCGAGCAUCUUUGGAUGCAGAGGCGGCAGCCUUCGCUGGCGCGAUAGCGACAACGUUCUCAACUAUGACACGCAAAACGCGUGCUCCGUUGAAUGGAGUUUAUCAUG [G42C A47C C57U G81C C95A]
GGAUCUUCUCGAUCUAACAAAAAAGACAAAUCUGCCACAAAACUUGAGAGCAUCUUCGGAUGCAGAGGCGGCAGCCUUCGGUGGCGCCAUAGCGCCAACGUUCUCAACUAUGACACGCAAAACGCGUGCUCCGUUGAAUGGAGUUUAUCAUG [G42A G88C]
GGAUCUUCUCGAUCUAACAAAAAAGACAAAUCUGCCACAAACCUUGGGAGCAUCUUAGGAUGCAGAGGCGGCAGGCUUCGGUGGCGCGAUAGCGCCAACGUUCUCAACUAUGACACGCAAAACGGGUGCUCCGUUGAAUGGAGUUUAUCAUG [G42C A47G C57A C75G C125G]
GGAUCUUCUCGAUCUAACAAAAAAGACAAAUCUGCCACAAAACUUGAGAGCAUCUUCAGAUGCCUAGGCGGCAGCCUUCGGUGUCGCGAUAGCGCCAACGUUCUCAACUAUGACACGCAAAACGCGUGCUCCGUUGAAUGGAGUUUAUCAUG [G42A G58A A64C G65U G84U]
GGAUCUUCUCGAUCUAACAAAAAAGACAAAUCUGCCACAAACCUUGAGGGCAUCUUCGGAUGCAGAGGCGGCAGCCUUCGGUGGCGCGAUAGCGCCAACGUUCUCAACUAUGACACGCAAAACGCGUGCUCCGUUGACUGGAGUUUAUCAUG [G42C A49G A138C]
GGAUCUUCUCGAUCUAACAAAAAAGACAAAUCUGCCACAAAACUUGAGACCAUCAUCGGAUGCAGAGGCGGCAGCCUUCGGUGACGCGAUAGCGCCAACGUUCUCAACUAUGACACGCAAAACGCGUGCUCCGUUGAAUGGAUUUUAUCAUG [G42A G50C U55A G84A G143U]
GGAUCUUCUCGAUCUAACAAAAAAGACAAAUCUGCCACAAAACUUGAGAGCAUCUUCGUAUGCAGAGGCGGCAGCUUUCGGUGGCGCUAUAGCGCCAACGUUGUCAACUAUGACACGCAAAACGCGUGCUCCGUUGAAUGGAGUUUAUCAUU [G42A G59U C76U G88U C103G G152U]
GGAUCUUCUCGAUCUAACAAAAAAGACAAAUCUGCCACAAAACUUGAGAGCAUCUUCGGAUGCAGAGGCGGCAGCCUUCGGUGGCGCGAUAGCGCCAACGUUCUCAACUAUGACACGCAAAACGCGUGCUCCGUUGAAUGGAGUUUACCAUG [G42A U148C]
GGAUCUUCUCGAUCUAACAAAAAAGACAAAUCUGCCACAAAACGUGAGAGCAUCUACGGAUGCAGAGGCGGCAGCCUUCGCUGGAGCGAUAGCGCCAACGUUCUCAACUAUGACACUCAAAACGCGUGCUCCGUUGAAUGGAGUUUAUCAUG [G42A U44G U56A G81C C85A G117U]
GGAUCUUCUCGAUCUAACAAAAAAGACAAAUCUGCCACAAAACUUGAGAUCAACAUCGGAUGCAGAGGCGGCAGCCUUCGGUAGCGCGACAGCGCCAACGUUCUCAACUAUGACACGCAAAACGCGUGCUCCGUUGAAUGGAGAUUAUCAUG [G42A G50U U53A U55A G83A U90C U144A]
GGAUCUUCUCGAUCUAACAAAAAAGACAAAUCUGCCACAAAACUUGAGAGCAUCUUCGGAUGCAGAGGCGGCAGCCUUCGGUGGCGCGAUAACGCUAGCGUUCUCAACUAUGACACGCAAAACGCGUGCUCCGUUGAAUGGAGUUUAUCAGG [G42A G92A C96U A98G U151G]
GGAUCUUCUCGAUCUAACAAAAAAGACAAAUCUGCCACAAAACUUGAGAGCAUCUUCGGAAGCAGAGGCGGCAGCCUUCGGUGGCACGAUAGCGCCAACGUUCUCAACUAUGACACGCAAAACGCGUGCUCCGUUCAAUGGAGUUUAUCAUG [G42A U61A G86A G136C]
GGAUCUUCUCGAUCUAACAAAAAAGACAAAUCUGCCACAAAACUUGAGAGCAUCUUCGGAUGCAGAGGCGGCAGCCUUCGGUGGCGCAAUAGGGCCAACGUUCUCAACUAUGACACGCAAAACGCGUGCUCCGUUGAAUGGAGUGUAUAAUG [G42A G88A C93G U145G C149A]
GGAUCUUCUCGAUCUAACAAAAAAGACAAAUCUGCCACAAAACUUGAGAGCAUCUUCGCAUGCAGAGGCGGCAGCCUUCGGUGGCGCGAUAGCGCCAACGUUCUCAACUAUGACACGCAAAACGGGUGCUCCGUUGAAUGGAGUUUAUCAUG [G42A G59C C125G]
GGAUCUUCUCGAUCUAACAAAAAAGACAAAUCUGCCACAAAACUUGAGAGCAUCUUCGGAUGCAGAGGCGGCAGCCUUCGGUGGCACGAUAGCGCCAACGUUUUCAACUAUGACACGCCAAACGCGUGCUCCGUUGAAUGGAGUUUAUCAUG [G42A G86A C103U A119C]
GGAUCUUCUCGAUCUAACAAAAAAGACAAAUCUGCCACAAAACUUGAGAGCAUCUUCGGAAGCAGAGGCGGCAGCCUUCGGUGCCGCGAUAGCGCCAACGUUCUCAACUAUGACACGCAAAACGCGUGCUCCUUUGAAUGGAGGUUAUCAUG [G42A U61A G84C G133U U144G]
GGAUCUUCUCGAUCUAACAAAAAAGACAAAUCUGCCACAAAACUUGAGAGCAUCUACGGUUGCAGAGGCGGCAGCAUUCGGUGGCGCGAUAGCGCAAACGUGCUCAACUAUGACACGCAAAACGCGAGCUCCGUUGAAUGUAGUUUAUCGUG [G42A U56A A60U C76A C96A U102G U127A G141U A150G]

Polymerase ribozyme fitness (log ratio), -3.95:
GGAUCUUCUCGAUCUAACAAAAAAGACAAAUCUGCCACAAAACUUGAGAGCAUCUUCGGAUGCAGAGGCGGCAGCCUUCGGUGACGCGAUAGCGCCAACGUUCUCAACUAUGACACGCAAAACGCGUGCUCCGUUGAAUGGAGUUUAUCAUG [G42A G84A]

Polymerase ribozyme fitness (log ratio), -4.06:
GGAUCUUCUCGAUCUAACAAAAAAGACAAAUCUGCCACAAAACUUGAGAGCAUCAUCGGAUGCAGAGGCGGCAGCCUUCGGUGGCGCGAUAGCGCAAACGUUCUCAACUAUGACACGCAAAACGCGUGCUCCGUUGAAUGGAGUUUAUCAUG [G42A U55A C96A]

Polymerase ribozyme fitness (log ratio), -3.81:
GGAUCUUCUCGAUCUAACAAAAAAGACAAAUCUGCCACAAAACUUGAGAGCAUCAUCGGAUGCAGAGGCGGCAGCCUUCGGUGGCGCGAUAGCGCCAACGUUCUCAACUAUGACACGCAAAACGCGUGCUCCGUUGAAUGGAGUUUAUCAUG [G42A U55A]

Polymerase ribozyme fitness (log ratio), -4.18:
GGAUCUUCUCGAUCUAACAAAAAAGACAAAUCUGCCACAAACCUUGAGAGCAUCUUCGGGUGCAGAGGCGGCAGGCUUCGGUGGCGCGAUAGCGCCAACGUUCUUAACUAUGACACGCAAAGCGCGUGCUCCGUUGAAUGGAGUUUAUCAUG [G42C A60G C75G C105U A122G]

Polymerase ribozyme fitness (log ratio), -4.05:
GGAUCUUCUCGAUCUAACAAAAAAGACAAAUCUGCCACAAACCUUGAGAGCAUCUUCGGGUGCAGAGGCGGCAGCCUUCGGUGGCGCGAUAGCGCCAACGUUCUCAACUAUGACACGCAAAACGCGUGCUCCGUUGAAUGGAGUUUAUCAUG [G42C A60G]
